Consider 2 molecules from PMC8928829 (mAbs, 2022).

In general, Kd refers to the equilibrium constant for the complex coming apart. The term koff denotes the first-order rate constant of dissociation. For orientation: kon means the rate constant with which the complex forms. The low end stands for slow association, the high end for fast association.

Holding throughout (details): both partners purified
In assay [1] the target is T1, SARS-CoV-2 RBD (prototype), construct made for crystallography (SARS-CoV-2, prototype (Wuhan-Hu-1)).
T1 construct: also called prototype SARS-CoV-2 RBD; SARS-CoV-2 RBD (319-537)
In words: crystal structure.

Assay [2] concerns the target recombinant SARS-CoV-2 RBD, prototype (BLI) (SARS-CoV-2, prototype (Wuhan-Hu-1), UniProt P0DTC2). In words: BLI. For orientation: Biolayer interferometry detects binding as a change in optical thickness at a sensor tip.
The target of assay [3] is SARS-CoV-2 RBD, prototype (SARS-CoV-2, prototype (Wuhan-Hu-1), UniProt P0DTC2). Put plainly: BLI.

B1: NIH-CoVnb-112 (VHH)
VHH: DVQLQESGGGLVQPGGSLRLSCAASGLTLDYYAIGWFRQAPGKEREGVSCISSSDGSTYYADSVKGRFTTSRDNAKNTVYLQMNSLKPEDTAVYYCAAVPSTYYSGTYYYTCHPGGMDYWGKGTQVTVSS
For B1, the binding result in assay [1] was “binds”. In assay [2], the Kd was determined as 1.59 nM and the koff came out at 0.000236 s⁻¹.

B2: NIH-CoVnb-112 (VHH)
VHH: B1 VHH
Molecule B2 returned a kon in assay [3] of 223000 M⁻¹ s⁻¹.
